From PMC10981675, “Structural basis for phage-mediated activation and repression of bacterial DSR2 anti-phage defense system” (Nature Communications, 2024)

B2: defense-associated sirtuin 2 (DSR2), wild type (enzyme, Bacillus subtilis)
chain: MVKVDLESKRYGEKLKEVFLMLDNNVVECIKEITESSRNGKLVFFVGAGVSTLSDYPQWWRLVDKYHEELYGSPKKGNYSSDEYLRIPQIFYNVKGEMAFDGILKDFFQVDKPTNPIHDKILAMNPAHVITTNYDNLIDTACWKRGKYFSVISAEEDVANATSSRYLLKVHGDFRKGFKGENVVLKEDDYLNYDQNYPLISNLMKTIIATHTIVFIGYGLGDYNINMLLNWVRKLQKDSFHKPFFIRTDPSPIENETLIYYENKGLRIIDAASLIDSNEYDYLERYSAVMDLLIESQENKFITKDDEVIDYIYGKISPLFALQYIRKIDLKHVFEYDYHFEVNGTVVRHKNKGFGYMERFFELKESCDERSKLSKKQYERFNALFNFFEKNGVICMAKDAGTLNTSIEINSLAYHGKYDVMKKFIEEQSVSIEDDYKKAFFLACLGRWEESYDLYSNIILNSIDESNGCVYYLSQINRYRIYQSITQAVTQFNGLGLLTFGRHYKPFTDEFLARIEREMTNFNIDDLFNGMPFEFQKKYKILEFLSDNQFLYDDTVKLFELTNKVRSEMSEGSYSFGMSSDIVVLLRLYDNLRFLYENCLWSVSFHEFHQYIRNSMSLLIEKAEYERTRDIDELGFSFFGKKSGFFMEYYDFVNISRHFKIDDIKNLERSCSIDKIRFGEQEKIEEYLVGIAEEITKQFSANGMNVVFYTQFISEAKAALYFAKYVKLSEEGLGKIVKALLFYFPERDLDIGKRYVWLERLTKCNELPKSIISIIDDFLVLQAEKHIDQNYSEVSSNGLYSRDYGALIKHFEKNFISKRLSEITLCLTQDKQKQIDFLFKLLPLLSTNAKSHLLSFKSVENINDLMNGIRIGLIDEFTPEHEELIIEYLETRKVNYIVEKEKGIQTFSSNDYMSTFGIWYFLEEINNSKMEEFIGMDDQYDFFVDPENFDYKKFIPSWLKNYNDKLLGKIAGNKHMKHHVIEVLKERVKNSNDKRYLEILMNYFI
notes: DSR2 (defense-associated sirtuin 2) of Bacillus subtilis, NCBI protein WP_029317421; codon-optimized synthetic gene in pRSFDuet MCS1; Tetramer (dimer of dimers) by cryo-EM and SEC; also called WT DSR2; wild-type DSR2; source: E. coli BL21 Star (DE3), purified (Ni-NTA, HiTrap Q, Superdex 200); also co-purified with tube or DSAD1; not shown: 6×His, N-terminal, kept
B3: DSR2 H171A (enzyme, Bacillus subtilis)
chain: MVKVDLESKRYGEKLKEVFLMLDNNVVECIKEITESSRNGKLVFFVGAGVSTLSDYPQWWRLVDKYHEELYGSPKKGNYSSDEYLRIPQIFYNVKGEMAFDGILKDFFQVDKPTNPIHDKILAMNPAHVITTNYDNLIDTACWKRGKYFSVISAEEDVANATSSRYLLKVAGDFRKGFKGENVVLKEDDYLNYDQNYPLISNLMKTIIATHTIVFIGYGLGDYNINMLLNWVRKLQKDSFHKPFFIRTDPSPIENETLIYYENKGLRIIDAASLIDSNEYDYLERYSAVMDLLIESQENKFITKDDEVIDYIYGKISPLFALQYIRKIDLKHVFEYDYHFEVNGTVVRHKNKGFGYMERFFELKESCDERSKLSKKQYERFNALFNFFEKNGVICMAKDAGTLNTSIEINSLAYHGKYDVMKKFIEEQSVSIEDDYKKAFFLACLGRWEESYDLYSNIILNSIDESNGCVYYLSQINRYRIYQSITQAVTQFNGLGLLTFGRHYKPFTDEFLARIEREMTNFNIDDLFNGMPFEFQKKYKILEFLSDNQFLYDDTVKLFELTNKVRSEMSEGSYSFGMSSDIVVLLRLYDNLRFLYENCLWSVSFHEFHQYIRNSMSLLIEKAEYERTRDIDELGFSFFGKKSGFFMEYYDFVNISRHFKIDDIKNLERSCSIDKIRFGEQEKIEEYLVGIAEEITKQFSANGMNVVFYTQFISEAKAALYFAKYVKLSEEGLGKIVKALLFYFPERDLDIGKRYVWLERLTKCNELPKSIISIIDDFLVLQAEKHIDQNYSEVSSNGLYSRDYGALIKHFEKNFISKRLSEITLCLTQDKQKQIDFLFKLLPLLSTNAKSHLLSFKSVENINDLMNGIRIGLIDEFTPEHEELIIEYLETRKVNYIVEKEKGIQTFSSNDYMSTFGIWYFLEEINNSKMEEFIGMDDQYDFFVDPENFDYKKFIPSWLKNYNDKLLGKIAGNKHMKHHVIEVLKERVKNSNDKRYLEILMNYFI
notes: DSR2 of Bacillus subtilis, NCBI protein WP_029317421, with H171A; source: E. coli, co-expressed with the tail tube protein, co-purified

What was measured:
[1] = target: defense-associated sirtuin 2 (DSR2), wild type (Bacillus subtilis) (UniProt P0DXN8); test: cryo-EM structure; co-purified complex incubated with 1 mM NAD+ before freezing; conditions: scale: DSAD1 per DSR2
[2] = target: defense-associated sirtuin 2 (DSR2), wild type (Bacillus subtilis) (UniProt P0DXN8); test: cryo-EM structure; purified DSR2 (~25 mg/mL), co-purified DSR2-DSAD1 (~25 mg/mL) or co-purified DSR2-tube (~4 mg/mL, polylysine-treated grid); no NAD+ added; Titan Krios 300 kV; conditions: scale: DSAD1 per DSR2
[3] = target: T1, DSR2–tube complex (Bacillus subtilis, UniProt P0DXN8); test: fluorescence NADase assay (ex […] nm, em […] nm); format: biochemical; conditions: 400 nM protein, 50 μM εNAD+, 10 mM MES pH 6.5, 75 mM KCl, 2 mM MgCl2, 37 °C
T1 construct: gene BKP58_08510; full-length DSR2, N-terminal 6xHis, E. coli BL21 Star (DE3), codon-optimized; tube GST tag removed by HRV 3C; tetrameric DSR2; DSR2:tube 4:2 (wild type) or 4:4 (H171A with NAD+); with Tail tube protein (Bacillus phage SPR)
T1 sequence (P0DXN8 1-1005): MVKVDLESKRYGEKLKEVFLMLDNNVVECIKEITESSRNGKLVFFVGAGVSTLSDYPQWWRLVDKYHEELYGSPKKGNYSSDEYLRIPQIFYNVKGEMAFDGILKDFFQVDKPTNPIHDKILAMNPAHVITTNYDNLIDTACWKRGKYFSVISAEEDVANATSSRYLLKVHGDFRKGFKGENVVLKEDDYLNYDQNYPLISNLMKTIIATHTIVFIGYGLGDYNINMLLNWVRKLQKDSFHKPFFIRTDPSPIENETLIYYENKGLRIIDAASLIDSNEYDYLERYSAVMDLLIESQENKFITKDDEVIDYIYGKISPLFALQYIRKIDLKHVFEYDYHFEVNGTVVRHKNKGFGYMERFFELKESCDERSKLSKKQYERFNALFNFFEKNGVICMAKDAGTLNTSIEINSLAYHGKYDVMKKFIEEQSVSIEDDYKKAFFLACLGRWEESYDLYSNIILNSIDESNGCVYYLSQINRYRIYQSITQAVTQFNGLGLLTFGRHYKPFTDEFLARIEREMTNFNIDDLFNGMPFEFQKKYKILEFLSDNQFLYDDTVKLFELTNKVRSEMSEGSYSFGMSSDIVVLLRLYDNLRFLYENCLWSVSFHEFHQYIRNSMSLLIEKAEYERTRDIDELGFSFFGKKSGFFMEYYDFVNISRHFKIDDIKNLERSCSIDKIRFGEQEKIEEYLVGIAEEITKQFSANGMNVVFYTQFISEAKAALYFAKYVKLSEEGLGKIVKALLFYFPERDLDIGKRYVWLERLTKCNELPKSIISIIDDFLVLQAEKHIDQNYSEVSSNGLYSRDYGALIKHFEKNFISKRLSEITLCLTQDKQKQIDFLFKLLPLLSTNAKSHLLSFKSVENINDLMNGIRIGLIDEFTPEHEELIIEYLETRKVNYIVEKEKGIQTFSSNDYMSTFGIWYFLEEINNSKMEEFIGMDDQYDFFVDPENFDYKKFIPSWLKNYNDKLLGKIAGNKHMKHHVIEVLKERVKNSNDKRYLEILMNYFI
T1 sequence (A0AAE9G628 1-264 partner): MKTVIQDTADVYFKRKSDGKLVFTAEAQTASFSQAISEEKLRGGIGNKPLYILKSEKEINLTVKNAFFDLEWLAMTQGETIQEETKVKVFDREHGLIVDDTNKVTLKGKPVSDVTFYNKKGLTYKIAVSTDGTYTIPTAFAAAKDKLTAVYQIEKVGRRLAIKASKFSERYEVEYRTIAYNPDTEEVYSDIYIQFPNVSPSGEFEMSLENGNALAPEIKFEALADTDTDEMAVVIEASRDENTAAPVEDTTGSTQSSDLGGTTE

[4] = target: the molecule itself; test: SEC; purified tail tube protein alone
[5] = target: B3; test: cryo-EM structure; co-purified complex incubated with 1 mM NAD+ before freezing; conditions: both partners purified
[6] = target: B2; test: cryo-EM structure; purified DSR2 (~25 mg/mL), co-purified DSR2-DSAD1 (~25 mg/mL) or co-purified DSR2-tube (~4 mg/mL, polylysine-treated grid); no NAD+ added; Titan Krios 300 kV; conditions: both partners purified
[7] = target: the molecule itself; test: SEC; purified DSR2 alone; Superdex 200 Increase 10/300 GL, 20 mM Tris-HCl pH 7.5, 150 mM NaCl, 1 mM DTT
[8] = target: the molecule itself; test: cryo-EM structure; co-purified complex incubated with 1 mM NAD+ before freezing

With “DSR anti-defense 1 (DSAD1) (natural protein)” as the molecule, how does the stoichiometry N [1] read?
Its stoichiometry N is 0.5.

What about the stoichiometry N [2] of the same molecule?
Its stoichiometry N is 0.5.

Which “fluorescence NADase assay (ex 300 nm, em 410 nm)” value [3] does the source give for NC(=O)c1ccc[n+]([C@@H]2O[C@H](COP(=O)(O)OP(=O)(O)OC[C@H]3O[C@@H](n4cnc5c4ncn4ccnc54)[C@H](O)[C@@H]3O)[C@@H](O)[C@H]2O)c1 [εNAD^+] here?
Its value is “The purified DSR2–tube complex exhibited pronounced NADase activity”.

B1: tail tube protein of phage SPR, wild type (natural protein)
chain: MKTVIQDTADVYFKRKSDGKLVFTAEAQTASFSQAISEEKLRGGIGNKPLYILKSEKEINLTVKNAFFDLEWLAMTQGETIQEETKVKVFDREHGLIVDDTNKVTLKGKPVSDVTFYNKKGLTYKIAVSTDGTYTIPTAFAAAKDKLTAVYQIEKVGRRLAIKASKFSERYEVEYRTIAYNPDTEEVYSDIYIQFPNVSPSGEFEMSLENGNALAPEIKFEALADTDTDEMAVVIEASRDENTAAPVEDTTGSTQSSDLGGTTE
notes: tail tube protein of Bacillus phage SPR; domains D1 and D2; GST removal with HRV 3C is told for the DSR2-tube complex; Alone it runs as monomeric and oligomeric species on SEC; Only D1 is seen in the maps; also called phage tail tube protein; source: E. coli BL21 Star (DE3); purified alone, or co-purified with DSR2 (Ni-NTA, glutathione resin, HRV 3C cleavage, HiTrap Q, Superdex 200); not shown: …
Which results are given for B1?
binding result [4]: binds; stoichiometry N [5]: 1 tube per DSR2 (printed as DSR2:tube 4:4); stoichiometry N [6]: 0.5 tube per DSR2 (printed as DSR2:tube 4:2)

For B2, which “stoichiometry N” value [7] is on record?
The value was 4.

How did the “stoichiometry N” value [8] turn out when B3 was run?
Its value is 4.
